Measurements as given in patent US12305172.
Where two headings read alike, the source gives them in different places.

Columns and labels:
[1] = molecular target: thrombin (UniProt P00734+P00734); details: CD titration at 295 nm, water, no added cations
[2] = molecular target: thrombin (Bos taurus) (UniProt P00735+P00735); assay: inhibition; details: clotting time

GGTTGGTGTGGTTGG [TBA]
Kd ([1]; n = 1): 380 nM

GGUUGGUGUGGUUGG [iso-rTBA]
activity ([2]; all 2'-5'-linked RNA (3'-OH), SEQ ID NO:1, 0.25 uM oligomer, 0.1 NIH U thrombin, 3.5 uM human fibrinogen, 37 °C): 70.9 s | Kd ([1]; all 2'-5'-linked RNA (3'-OH), SEQ ID NO:1, n = 4 thrombin per oligomer): 3400 nM

GGTTGGTGTGGTTGG [isoTBA]
activity ([2]; 2'-5'-linked isoDNA analogue of TBA [1-15 (all 2'-5'-linked isoDNA)], stated for comparison with TBA and iso-rTBA): 73.4 s
